Results reported in patent US5221606A, “Reagent and kit for enzyme assay comprising a substrate consonant with given enzyme to be assayed” (King's College London, priority 1987, dated 1993).

Substrate: CCC(=O)Oc1c(OC)cc(C=C2SC(=S)N(CC(=O)O)C2=O)cc1OC
Experiment: assay of arylesterase in serum
Type: biochemical
Settings: other: borate buffer pH 8, 37.0 °C
Procedure: The serum samples were diluted by a factor of 10 prior to the assay. The substrate solution and the diluted sera were then preincubated at 37° C. in a water bath. Aliquots (0.75 ml) of the substrate solution were then pipetted into small plastic tubes (2 ml capacity), and 0.05 ml samples of the sera were added to each of the substrate aliquots and shaken vigorously to ensure adequate mixing. A blank was run by substituting water (0.05 ml) for the serum. The reaction was stopped after 10 min by the addition of the stopping buffer (0.25 ml) [prepared by dissolving DABCO (22.4 g) in water (200 ml) and adjusting the pH to 10 by the addition of a little conc. hydrochloric acid. The resulting mixture was then made up to 1000 ml with acetone]. The absorption (A) was then measured at 529 nm and the enzyme activity calculated on the basis of an εmax =47,500. [formula] where t=time of incubation in hours

B1: arylesterase (Homo sapiens) (protein)
chain: MAKLIALTLLGMGLALFRNHQSSYQTRLNALREVQPVELPNCNLVKGIETGSEDLEILPNGLAFISSGLKYPGIKSFNPNSPGKILLMDLNEEDPTVLELGITGSKFDVSSFNPHGISTFTDEDNAMYLLVVNHPDAKSTVELFKFQEEEKSLLHLKTIRHKLLPNLNDIVAVGPEHFYGTNDHYFLDPYLQSWEMYLGLAWSYVVYYSPSEVRVVAEGFDFANGINISPDGKYVYIAELLAHKIHVYEKHANWTLTPLKSLDFNTLVDNISVDPETGDLWVGCHPNGMKIFFYDSENPPASEVLRIQNILTEEPKVTQVYAENGTVLQGSTVASVYKGKLLIGTVFHKALYCEL
notes: The serum samples were diluted by a factor of 10 prior to the assay; from tissue; host or cells: serum
- Km: 25 µM
